Columns and labels:
[1] = molecular target: S1(349-590)-hFc (MERS-CoV; human) (UniProt K9N5Q8); test: BLI (Octet), wild type RBD-hFc
[2] = molecular target: Human DPP4 on stable 293T cells (293T-hDPP4) (human) (UniProt P27487)

Substance	Kd [1]	EC50 [2]
Recombinant soluble human DPP4 (from UniProt P27487 29-766) (receptor)	21.4 nM	
S1(349-590)-hFc (from UniProt K9N5Q8 349-590) (Fc fusion)		0.015 µg/mL

Source: US20190194299A1
